Test results reported in publication PMC6143433 (Biochemistry, 2018).

Target: the molecule itself
Test: SEC

B1: MftE from M. ulcerans (enzyme, UniProt A0PM51 1-250, looked up)
chain: MNSSYHRRVPVLGELGTSTSSQLPSTWPSILIPLGSTEQHGPHLPLDTDTRIATAVGRAVATRMHGRLTQCQPGWLLAPPIAYGASGEHQSFAGTISIGAEALRVLLLEYGRSAACWADRLVFVNGHGGNVEALRGAVRQLRAEGRDAGWSACGSAGGDAHAGHTETSVLLHISPEVVLTDRLSAGNAAPLAELLPSLRRGGVAAVSPIGVLGDPTTATAVEGRRIFAEMVDDCVSRIARWTPGPDGMLT
stoichiometry N: 8
